Measurements reported in the nanobody polyreactivity screen of Harvey et al. (2022).

Assay: yeast display, Sf9 membrane polyspecificity reagent, FACS + sequencing; frameworks hold sequencing errors
Procedure, shortened: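 Genes from sorted yeast were amplified by colony PCR, read by MiSeq 2 × 250 sequencing and filtered on CDR length. These cells carried a synthetic nanobody library in Saccharomyces cerevisiae BJ5465 and were sorted by FACS into low and high (top ~1%) gates on anti-HA and streptavidin fluorescence. Polyreactivity is labelled according to the gate of origin.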

Row | Sequence | polyreactivity (PSR sort gate)
1 | QVQLGESGGGLVQAGGSLRLTCAASGFTFRGYAMGWYRQAPGKEWELVAANSRRGGSTYYADSVKGRFTISRDNAKYTVYLQMNSLKPEETAVYYCNAVGRFYFRFPPNNEYDYWGQGTQVTVSS | high polyreactivity
2 | QVQLGESGGGLVQAGGSLRLTCAASGYIFISDAMGLYRQAHGKEREFVAAITGDGGSTYADSVKGRFTISRYNAKNTVYLQMNSLKPEDTAVYYCAAEGQLFDLYDYWGQGTEVTVSS | low polyreactivity
3 | QVQLGESGGGLVQAGGSLSLSCAASGSIFRNYAMGWYRPAPGKEWELVAAITRGGPTNYADSVKGRVTISRDHAKNTVYLQMNRQKPEDTAVYYCNAAWRLGWTHWETTRYVYWGQGTHVTVSS | high polyreactivity
4 | QVQLGESGGRLVQAGGSIRLTCAASGRTFVTYAMAWSRQAPGNEWELVAGIRPGGSTYYADSVKGRFTISRDNAKNTVYLQMNSLKPEDTAVYYCAASRTSWQGYNYWGQGTQVTVSS | high polyreactivity
5 | QVQLGESGGRLVQAGGSLRLSCAASGRTIVINAMGWYRKEPGKERELVAAISRGGSTNYADSVKGRFTISRDNAKNTVYLQMNRLKPEDTAVYYCKADYPNWWSPFDYWGQGTQVTVSS | low polyreactivity
6 | QVQLGETGGGLVQAGGSLRLSCAASGFNFGYYVMGWYRQAPGKERELVAAITSGGSKYYADSVKGRFTISRDNAKNTVYLQMNSLKPEDTAVYYCNKYGVVLPGFDEWGQGTQVTVSS | high polyreactivity
7 | QVQLHESGCGLVQAGGSLRLSCAASGTISYAGPMGWYRPAPGNEREFVAGIGVGSNTNYADSVKGRYTIIRDNATNTVYLQMNSLKPEDTAVYYCAVGGYAPLGRPYWGQGTQVTVSS | low polyreactivity
8 | QVQLHESGCVLVQAGGSLRLRCAASRNISGSSDLGWYHQAPGKEREFVASITSGGTTYYADSVKVRFTISRDNAKNTVYLQMNSLKPEDTAVYYCAVGDPADAEFGYWGQGTQVTVSS | low polyreactivity
9 | QVQLHESGGGLCRRAAASSGAASGTISFLYYMGWYRQAPGQEREFVAGINNGTTTNYADSVKGRFTNSRDNAKNTVYLQMNSLKPEDTAVYYCAVRKPYKATTASGFEYWGQGTQVTVSS | high polyreactivity
10 | QVQLHESGGGLVQAGGSLRLSCAASGTISYAGPIGWYRQAPGKEREFVAGIGVCSNTNYADSVKGRYTIIRDNAKNTVYLQMNSLKPEDTAVYYCAAETDSWVGGYSYASLDYWGQGTQVTVSS | low polyreactivity
11 | QVQLHESGGGLVQAGGSLRLSCAASGTISYAGPMGWYRQAPGKEREFVAGIGVGSNTNYADSVKGRYTIIRDNAKNTVYLQMNSLKPEDTAVYYCAVGGYAPLGRPDWGQGTQVTVRS | low polyreactivity
12 | QVQLHESGGGLVQAGGSLRLSCAASGTISYAGPMGWYRQAPGKEREFVAGIGVGSNTNYADSVKGRYTIIRDNAKNTVYLQMTSLKPEDTAVYYCAVGGYAPLGRPYWGQGTQVTVSS | low polyreactivity
13 | QVQLHESGGGLVQARGSLRLSCAASGTSSNAGPMGWYRQAPGKEREFVAGIGVGSNTNYADSVKGRYTIIRDNAKNTVYLQMNSLKPEDTAVYYCAVGGYAPLGRPYWGQGTQVTVSS | low polyreactivity
14 | QVQLHESGGGLVQSGGSLRLICAASGSISHYIFMGWYRQAPGKEREFVAGIGYGGTTNNADSVKGRFTISRDNAKNTVYLQMNSLKPEDTAMYYCAAREATEFYLDYWGQGTQVTVSS | low polyreactivity
15 | QVQLHESGRGLVQAGGSLRLSCAASGTISYAGQMGWYRQAPGKEREFVAAIGVGSNTNYADIVKGRYTIIRYNAKNSVYLQIISLKPEDTAVYYCAVGCYAPLGRPFWGQGTQVTVSS | low polyreactivity
16 | QVQLHESGVGLVQAGGGLRLSCAATGSISSTGFMGWYRQAPGKEREPVAAIAPGTTTYYADSVKGRFTISRDNAKNTVYLQMNSLRPEDTAVYYCAVFTDNRVAFLYWGQGTQVTVSS | low polyreactivity
17 | QVQLIESGGGLVKAGGSLRLSCAASGSIFYRNTMGWYRQAPGKERELVARISWSGGRTYYADSVKGRFTISRDNAKNTVYLQMNSLKPEDTAVYYCAASTYGQRGTSYGYWGQGTQVTVSS | low polyreactivity
18 | QVQLIESGGGLVQAGGSLRLSCAASGFTFYYNTMGWYRQAPGKERELVAAITRSVGSTYYADSVKGRFTISRDNAKNTVYLQMNSLKPEDTAVYYCAARRLGYYRKVKELDYWGQGTQVTVSS | high polyreactivity
19 | QVQLIESGGGLVQAGGSLRLSCAASGSIFAANAMGWYRQAPGKEREFVASISYTGASTYADSVKGRFTISRDNAKNTVYLQINSLKPEDTAVYYCAKDGYWTGLDPYYYWGQGTQVTVSS | low polyreactivity
20 | QVQLKERGGGLVQAGGSLRLSCAAIGPISRRSTMGWYRQAPGKERELVTDITRGTNTNYADSVKGRFTISRDNAKNTEYLQMNSLKPEDTAVYYCEAYGVLKPSRGDAVFHRYWGQGTQVTVSS | low polyreactivity
21 | QVQLKESGGCLVPSRGSLRQSCAASGSISGPHVKGWYRQAPGKEREFVAAINVGANTYYADNVKGRFTISRDNANNPGYLQMNSLKPEDTAVYFCAAVYFGDIGHEYWGQGTQVTVSC | low polyreactivity
22 | QVQLKESGGGLVQSGGSLRLSCAASGNIVDADIMGWYRQAPGKERELVASITDGGSTNYADSVKGRFTISRDNAKNTVYLQMNSLKPEDTAVYYCAAIAYPDIPTYFDYDSEYFYWGQGTQVTVSS | low polyreactivity

Row | Sequence | polyreactivity (PSR sort gate)
23 | QVQLLDSGGGLVQAGGSLSLSCAASGSSFRYYAMGWYRPAPRKEREFVADISWSGSSTYYADSVKGRFTISRDNSKITVYLLMNSLTPEDTAVYYCAARYRYRSSSYDYWGQGTQVTVSS | high polyreactivity
24 | QVQLLESCVGLVHAGGSLRLSCAASGFIFGTNAMGWSRQAPGKEREWVAAINGRGGGTYYADSVKGRFTISRDNAKNTVYLQMNSLKQEDTAVYYCAASRFDYWGQGTQVTVSS | low polyreactivity
25 | QVQLLESGAGLLQAGGSLRLSCAASGRTFLKYAMGWYRQAPGKERELVAAISRGDSTYYADSVKGRFTISRDNAKNTVYLQMNSLKTEDTAVYFCAKPGYYVRYGYWGQGTQVTVSS | high polyreactivity
26 | QVQLLESGGAIVQAGGSHRLSCAASGSIFTHYAMGWYRQATGKERELVAGITSSGGSTYADSVKGRFTISRDNAKNSVYLQMISLKPEDTAVYYCAAEQLRSRLIEYDYWGQGTQVTVSS | low polyreactivity
27 | QVQLLESGGGIVQAGGILRLSCAASGITIGWYAMGWYRPAPGKERELVASISSSGSTNYADSVKGLFTISRDNAKNTFYLQMNSMKPEDTAVYYCNKDYLLRHYYIYVIEGDYWGQGTQVTVSS | low polyreactivity
28 | QVQLLESGGGLFQAGGSLRLSCAASGYTFSRNAMGWYRTAPGKERELVAANTGSGGSTYYADSVKGRFTISRDNAQNTVYYQMNSLKPEDTAVYYCATEVKRGYVGFDYWGQGTQVTVSS | low polyreactivity
29 | QVQLLESGGGLLQAGASLLLSCAASGNIFYRNAMGWYRQAPGKERELVAAISSGGITYYADSVKGRYTISRDNAKNSVSLQMNSLKPEDTAVYYCAAYIRNWRATYEYWGQGSQVTVSS | high polyreactivity
30 | QVQLLESGGGLVQAGASLRLSCAASGSICWVYDMGWYRQAPGKERELVAAISQSGGSTYYADSVKGRFTISRDNAKNTVYFQMNSLKPEDTAGYYCAAYVRGQNYDYWGQGTQVTVSS | high polyreactivity
31 | QVQLLESGGGLVQAGGRLRLSCADSGGIIAYNAIGWYRQAPAKERELVAAISSSGGRTYYADSVKGRFTISRDNAKITVYLQMNSLKPEDTAVYYFAAVRSGIEYGYWGQGTQVTVSS | high polyreactivity
32 | QVQLLESGGGLVQAGGRLRLSCAPSGRSIRYYTMGWYRQAPGKERELVAAISRSGDSTYYADSVKGRFTISRDNEKNTVYVQLKCLIPVDTAVYYCAASLVYQFCYDYWGQGTQVSVSS | high polyreactivity
33 | QVQLLESGGGLVQAGGSHRLSCASSGRTFSRYAMGWYRQAPGKERELVAAISYSGGSTYADSVKGRFTISRDNAKNTVYLQMIRLKPEDTAVYYCAAEKYVYWFSYQYGYWGQGTQVSVSS | high polyreactivity
34 | QVQLLESGGGLVQAGGSLRFSCAASGFTFPVYAMGWYRQAHGKEREFVAAISWSGGSTSYADSVKGRFTSSRDNAKNTVYLQMNSLKPEDTAVYYCAAEHEQYTQLDYWGQGTQVTVAS | high polyreactivity
35 | QVQLLESGGGLVQAGGSLRISCASSVRISPRYAMGWYRQAPGKERELVAAIDTSDGTTYYADSVKGRFTISRDNAMKTVYFQMNSLKPEDTAVYYCAAEGQLFDLYDYWGHGTQVTVSS | low polyreactivity
36 | QVQLLESGGGLVQAGGSLRLICAASGLIFGPYTMGWYRQAPGKERELVAAITRSGGRTYYADSVKGRFTISRDNAKNTVYLQMNRLKPEDTAVYYCAAYGGQSWDYDYWGQGTQVTVSS | high polyreactivity
37 | QVQLLESGGGLVQAGGSLRLSCAASGFIFSKYAMGWYRQAPGKERELVAGINRSGGSTYYADSVKGRFTISRDNAKNTVYFQMNSLKPEDTAVYYCAAPFGVQSRWYGQSGYWGQGTQVTVSS | high polyreactivity
38 | QVQLLESGGGLVQAGGSLRLSCAASGFTFQYYAMGWYRQAPGKERELVAAITRGDSTNYADSVKGRFTISRDNAKNTVYLQMNSLKPEDTAVYYCAAGSAPSYWGGWYYERDYWGQGTQVTVSS | low polyreactivity
39 | QVQLLESGGGLVQAGGSLRLSCAASGFTFVYYAMGWYRQAPGKERELVAAISSSGGITYYADSVKGRFTISRDNAKNTVYLQMNSMKPEDTAVYYCAARLWYPYYYWGQGTQVTVSS | high polyreactivity
40 | QVQLLESGGGLVQAGGSLRLSCAASGFTFYRYAMGWYRQAPGTERELVAVISRGGNTYYADSVKGRFTISRDNAKNTVYLQMNSLKPEDTAVYDCAVYYPRGVSGGRFTRYDYWGQGTQVTVSS | high polyreactivity
41 | QVQLLESGGGLVQAGGSLRLSCAASGITFEHYAMGWYRPAPGKERELVAAITWSGDSTNYADSVKGRFTISRDNAKNTVYLQMNSLNPEDTAVYYCAAYAYAGLYSGTWGYDYWGQGTQVTVSS | low polyreactivity
42 | QVQLLESGGGLVQAGGSLRLSCAASGLTFTAYVMGWYRHAPGKERELVAAISGGGSTYADSVKGRFTISGDNAKNTVSLQMNSLKPEDTAVYYCNADGWGDRFWSNFRFDYWGQGTQVTVSS | low polyreactivity
43 | QVQLLESGGGLVQAGGSLRLSCAASGLTIWRYAMGWYRQAPGKEREFVATISHNGGRTYYADSVKGRFTISRDNAKNSVYLQMNSLKPEDTAVYYCAADDWRWGYDYWGQGTQVTVSS | high polyreactivity
